Experimental data taken from patent publication WO2015087187A1 (dated 2015).
Where a chain is given by its changes, count along the chain named.

T1: recombinant human SOST (rhSOST) (human, UniProt Q9BQB4 24-213)
T1 construct: Treated as one molecule; also called recombinant human SOST protein; human sclerostin
T1 sequence: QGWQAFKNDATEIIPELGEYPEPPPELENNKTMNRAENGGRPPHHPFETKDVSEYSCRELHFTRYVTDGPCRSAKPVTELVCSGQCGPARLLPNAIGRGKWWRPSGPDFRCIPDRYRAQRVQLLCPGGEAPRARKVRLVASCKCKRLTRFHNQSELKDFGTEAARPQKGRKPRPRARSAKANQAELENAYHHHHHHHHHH

B1: DP99 (antibody, V domains shown)
VH: EVMLAESGGGLVQPGGSLQLSCAASGFTFSIYAMSWVRQTPEKRLEWVATISGGDTYTYYADSVKGRFTISRDNAKNTLYLHMTGLRSEDTALYYCARHGYDDFDYWGLGTTLTVSS
VL: DVVLTQIPLTLSVTIGQPATISCKSSQSLLDNDGETYLNWLLVRPGQSPKRLIYQVSKLDSGFPERFTGGGSGTDFTLKISRVEAEDLGIYYCWQGTHFPHTFGGGTKLEIK
notes: also called pH99/pL99
B2: DM21 (antibody, V domains shown)
VH: EVQLLESGGGLVQPGGSLRLSCAASGHTFSDYWMQWVRQAPGKGLEWIGAIYPGDGDTRYNQKFKDRFTISRDNSKNTLYLQMNSLRAEDTAVYYCARSMDYWGQGTLVTVSS
VL: DIVMTQSPDSLAVSLGERATINCRASKTVDSYGNSFMHWFQQKPGQPPKLLIYHSSNLESGVPDRFSGSGSGTDFTLTISSLQAEDVAVYYCLQTIEDPYTFGQGTKLEIK
notes: also called mH1/mL2
B3: DM4 (antibody, human IgG2, kappa, V domains shown)
VH: B2 VH with I48V
VL: DIVMTQSPDSLAVSLGERATINCRASKTVDSYGNSFMHWFQQKPGQPPKLLIHHSSNLESGVPDRFSGSGSGTDFTLTISSLQAEDVAVYYCLQTIEFPYTFGQGTKLEIKR
notes: mAb names lost in this copy; also called mH10/mL13
B4: DM31 (antibody, V domains shown)
VH: B2 VH with I48V
VL: B2 VL with F40Y, P99S
notes: also called mH10/mL19
B5: DM25 (antibody, V domains shown)
VH: B2 VH with S30T, I48V
VL: B2 VL with Y53H
notes: also called mH4/wt
B6: DM28 (antibody, V domains shown)
VH: B2 VH with S30T, N61A, K63S, F64V, D66G
VL: B2 VL with Y53H
notes: also called mH8/wt
B7: DM29 (antibody, V domains shown)
VH: B2 VH with I48V
VL: B2 VL
notes: also called mH10/mL2
B8: DM34 (antibody, V domains shown)
VH: B2 VH with H27F, I48V
VL: B2 VL with F40Y, P99S
notes: also called mH11/mL19
B9: DM32 (antibody, V domains shown)
VH: B2 VH with H27F, I48V
VL: B2 VL
notes: also called mH11/mL2
B10: DM33 (antibody, V domains shown)
VH: B2 VH with H27F, I48V
VL: B2 VL with F40Y, D98H
notes: also called mH11/mL15
B11: DM30 (antibody, V domains shown)
VH: B2 VH with I48V
VL: B2 VL with F40Y
notes: also called mH10/mL3
B12: DM26 (antibody, V domains shown)
VH: B2 VH with S30T, G49S
VL: B2 VL with Y53H
notes: also called mH5/wt
B13: DM23 (antibody, V domains shown)
VH: B2 VH with H27F
VL: B2 VL with Y53H
notes: also called mH3/wt
B14: DM24 (antibody, V domains shown)
VH: B2 VH with H27F
VL: B2 VL
notes: also called mH3/mL2
B15: DP1 (antibody, human IgG2, kappa, V domains shown)
VH: EVQLVESGGGLVQPGGSLRLSCAASGFTFSIYAMSWVRQAPGKGLEWVALISGGDTYTYYADSVKGRFTISRDNAKNSLYLQMNSLRAEDTAVYYCARHGYDDFDYWGQGTLVTVSS
VL: DVVMTQSPLSLPVTLGQPASISCRSSQSLLDNDGETYLNWFQQRPGQSPRRLIYQVSKLDSGVPDRFSGSGSGTDFTLKISRVEAEDVGVYYCWQGTHFPHTFGGGTKVEIKR
notes: also called pH1/pL1

Target: T1, recombinant human SOST (rhSOST)
Assay: SPR Biacore T200, IgG captured via anti-human Fc, rhSOST analyte, 37 C

Binder | Kd [nM] | koff [s⁻¹] | kon [M⁻¹ s⁻¹]
B1 | 0.103 | 0.003 | 2.9e+07
B2 | 0.008 | 7.41e-05 | 8.86e+06
B3 | 0.13 | 0.000508 | 3.91e+06
B4 | 0.816 | 0.00171 | 2.1e+06
B5 | 0.017 | 0.000101 | 5.81e+06
B6 | 0.099 | 0.00035 | 3.52e+06
B7 | 0.014 | 0.000101 | 7.41e+06
B8 | 1.65 | 0.00356 | 2.16e+06
B9 | 0.054 | 0.000419 | 7.75e+06
B10 | 0.093 | 0.000563 | 6.03e+06
B11 | 0.045 | 0.000239 | 5.34e+06
B12 | 0.053 | 0.000222 | 4.2e+06
B13 | 0.01 | 0.000134 | 1.39e+07
B14 | 0.035 | 0.000239 | 6.9e+06
B15 | 3.7 | 0.00667 | 1.8e+06

Target: T1, recombinant human SOST (rhSOST)
Assay: cell-based or functional assay

Binder | EC50, neutralization of rhSOST-mediated inhibition of Wnt-10B luciferase reporter activity in U-2OS-TF-Wnt10B cells | EC50, restoring WNT10b-stimulated luciferase activity suppressed by 1 ug/ml rhSOST in U2OS TOPFlash cells [nM]
B1 | 5.95 ug/ml (printed 'Mg/ml') | 37
B2 | 5.53 ug/ml (printed 'Mg/ml') | –
B3 | 2.07 ug/ml (printed 'Mg/ml') | –
B15 | 22 ug/ml (printed 'Mg/ml') | –
